Laboratory results published in patent US20260049138A1 (Chugai, published 2026).
Substitutions are numbered along the chain they refer to. Numbers in names are those of the source.

B1: CE115HA000 W33A one-arm antibody (antibody, human IgG1, kappa, L234A L235A, N297A, name in Kabat numbering)
heavy: QVQLVESGGGVVQPGRSLRLSCAASGFTFSNAAMHWVRQAPGKGLEWVAQIKAKSNNYATYYAESVKGRFTISRDDSKNSLYLQMNSLKTEDTAVYYCRYVHYGAYYGVDAWGQGTTVTVSSASTKGPSVFPLAPSSKSTSGGTAALGCLVKDYFPEPVTVSWNSGALTSGVHTFPAVLQSSGLYSLSSVVTVPSSSLGTQTYICNVNHKPSNTKVDKKVEPKSCDKTHTCPPCPAPEAAGGPSVFLFPPKPKDTLMISRTPEVTCVVVDVSHEDPEVKFNWYVDGVEVHNAKTKPREEQYASTYRVVSVLTVLHQDWLNGKEYKCKVSNKALPAPIEKTISKAKGQPREPQVYTLPPSRCELTKNQVSLSCAVKGFYPSDIAVEWESNGQPENNYKTTPPVLDSDGSFFLVSKLTVDKSRWQQGNVFSCSVMHEALHNHYTQKSLSLSPDYKDDDDK
chain: EPKSSDKTHTCPPCPAPELLGGPSVFLFPPKPKDTLMISRTPEVTCVVVDVSHEDPEVKFNWYVDGVEVHNAKTKPREEQYNSTYRVVSVLTVLHQDWLNGKEYKCKVSNKALPAPIEKTISKAKGQPREPQVCTLPPSRDELTKNQVSLWCLVKGFYPSDIAVEWESNGQPENNYKTTPPVLDSDGSFFLYSKLTVDKSRWQQGNVFSCSVMHEALHNRYTQKSLSLSP
light: DIVMTQSPLSLPVTPGEPASISCRSSQSLVHSNRNTYLHWYQQKPGQAPRLLIYKVSNRFSGVPDRFSGSGSGTDFTLKISRVEAEDVGVYYCGQGTQVPYTFGQGTKLEIKRTVAAPSVFIFPPSDEQLKSGTASVVCLLNNFYPREAKVQWKVDNALQSGNSQESVTEQDSKDSTYSLSSTLTLSKADYEKHKVYACEVTHQGLSSPVTKSFNRGEC
B2: CE115HA000 Y59A one-arm antibody (antibody, human IgG1, kappa, L234A L235A, N297A, name in Kabat numbering)
heavy: B1 heavy with A33W, Y62A
chain: B1 chain
light: B1 light
B3: CE115HA000 Y58Q one-arm antibody (antibody, human IgG1, kappa, L234A L235A, N297A, name in Kabat numbering)
heavy: B1 heavy with A33W, Y61Q
chain: B1 chain
light: B1 light
B4: CE115HA000 Y100D one-arm antibody (antibody, human IgG1, kappa, L234A L235A, N297A, name in Kabat numbering)
heavy: B1 heavy with A33W, Y106D
chain: B1 chain
light: B1 light
B5: CE115HA000 Y58L one-arm antibody (antibody, human IgG1, kappa, L234A L235A, N297A, name in Kabat numbering)
heavy: B1 heavy with A33W, Y61L
chain: B1 chain
light: B1 light
B6: CE115HA000 Y58D one-arm antibody (antibody, human IgG1, kappa, L234A L235A, N297A, name in Kabat numbering)
heavy: B1 heavy with A33W, Y61D
chain: B1 chain
light: B1 light
B7: CE115HA000 Y100G one-arm antibody (antibody, human IgG1, kappa, L234A L235A, N297A, name in Kabat numbering)
heavy: B1 heavy with A33W, Y106G
chain: B1 chain
light: B1 light
B8: CE115HA000 Y59E one-arm antibody (antibody, human IgG1, kappa, L234A L235A, N297A, name in Kabat numbering)
heavy: B1 heavy with A33W, Y62E
chain: B1 chain
light: B1 light
B9: CE115HA000 Y100L one-arm antibody (antibody, human IgG1, kappa, L234A L235A, N297A, name in Kabat numbering)
heavy: B1 heavy with A33W, Y106L
chain: B1 chain
light: B1 light
B10: CE115HA000 Y100P one-arm antibody (antibody, human IgG1, kappa, L234A L235A, N297A, name in Kabat numbering)
heavy: B1 heavy with A33W, Y106P
chain: B1 chain
light: B1 light
B11: CE115HA000 W33D one-arm antibody (antibody, human IgG1, kappa, L234A L235A, N297A, name in Kabat numbering)
heavy: B1 heavy with A33D
chain: B1 chain
light: B1 light
B12: CE115HA000 W33L one-arm antibody (antibody, human IgG1, kappa, L234A L235A, N297A, name in Kabat numbering)
heavy: B1 heavy with A33L
chain: B1 chain
light: B1 light
B13: CE115HA000 Y58K one-arm antibody (antibody, human IgG1, kappa, L234A L235A, N297A, name in Kabat numbering)
heavy: B1 heavy with A33W, Y61K
chain: B1 chain
light: B1 light
B14: CE115HA000 Y59S one-arm antibody (antibody, human IgG1, kappa, L234A L235A, N297A, name in Kabat numbering)
heavy: B1 heavy with A33W, Y62S
chain: B1 chain
light: B1 light
B15: CE115HA000 Y55D one-arm antibody (antibody, human IgG1, kappa, L234A L235A, N297A, name in Kabat numbering)
heavy: B1 heavy with A33W, Y58D
chain: B1 chain
light: B1 light
B16: CE115HA000 Y58N one-arm antibody (antibody, human IgG1, kappa, L234A L235A, N297A, name in Kabat numbering)
heavy: B1 heavy with A33W, Y61N
chain: B1 chain
light: B1 light
B17: CE115HA000 Y58S one-arm antibody (antibody, human IgG1, kappa, L234A L235A, N297A, name in Kabat numbering)
heavy: B1 heavy with A33W, Y61S
chain: B1 chain
light: B1 light
B18: CE115HA000 Y55S one-arm antibody (antibody, human IgG1, kappa, L234A L235A, N297A, name in Kabat numbering)
heavy: B1 heavy with A33W, Y58S
chain: B1 chain
light: B1 light
B19: CE115HA000 Y97R one-arm antibody (antibody, human IgG1, kappa, L234A L235A, N297A, name in Kabat numbering)
heavy: B1 heavy with A33W, Y103R
chain: B1 chain
light: B1 light
B20: CE115HA000 Y100K one-arm antibody (antibody, human IgG1, kappa, L234A L235A, N297A, name in Kabat numbering)
heavy: B1 heavy with A33W, Y106K
chain: B1 chain
light: B1 light
B21: CE115HA000 Y55G one-arm antibody (antibody, human IgG1, kappa, L234A L235A, N297A, name in Kabat numbering)
heavy: B1 heavy with A33W, Y58G
chain: B1 chain
light: B1 light
B22: CE115HA000 W33H one-arm antibody (antibody, human IgG1, kappa, L234A L235A, N297A, name in Kabat numbering)
heavy: B1 heavy with A33H
chain: B1 chain
light: B1 light
B23: CE115HA000 Y97S one-arm antibody (antibody, human IgG1, kappa, L234A L235A, N297A, name in Kabat numbering)
heavy: B1 heavy with A33W, Y103S
chain: B1 chain
light: B1 light
B24: CE115HA000 Y100A one-arm antibody (antibody, human IgG1, kappa, L234A L235A, N297A, name in Kabat numbering)
heavy: B1 heavy with A33W, Y106A
chain: B1 chain
light: B1 light
B25: CE115HA000 Y97A one-arm antibody (antibody, human IgG1, kappa, L234A L235A, N297A, name in Kabat numbering)
heavy: B1 heavy with A33W, Y103A
chain: B1 chain
light: B1 light
B26: CE115HA000 Y97P one-arm antibody (antibody, human IgG1, kappa, L234A L235A, N297A, name in Kabat numbering)
heavy: B1 heavy with A33W, Y103P
chain: B1 chain
light: B1 light
B27: CE115HA000 Y59D one-arm antibody (antibody, human IgG1, kappa, L234A L235A, N297A, name in Kabat numbering)
heavy: B1 heavy with A33W, Y62D
chain: B1 chain
light: B1 light
B28: CE115HA000 W33F one-arm antibody (antibody, human IgG1, kappa, L234A L235A, N297A, name in Kabat numbering)
heavy: B1 heavy with A33F
chain: B1 chain
light: B1 light
B29: CE115HA000 Y58A one-arm antibody (antibody, human IgG1, kappa, L234A L235A, N297A, name in Kabat numbering)
heavy: B1 heavy with A33W, Y61A
chain: B1 chain
light: B1 light
B30: CE115HA000 Y97D one-arm antibody (antibody, human IgG1, kappa, L234A L235A, N297A, name in Kabat numbering)
heavy: B1 heavy with A33W, Y103D
chain: B1 chain
light: B1 light
B31: CE115HA000 Y97G one-arm antibody (antibody, human IgG1, kappa, L234A L235A, N297A, name in Kabat numbering)
heavy: B1 heavy with A33W, Y103G
chain: B1 chain
light: B1 light
B32: CE115HA000 W33Y one-arm antibody (antibody, human IgG1, kappa, L234A L235A, N297A, name in Kabat numbering)
heavy: B1 heavy with A33Y
chain: B1 chain
light: B1 light

Target: T1, CD3ε homodimer protein (human, UniProt P07766 23-126, limits assumed, sulfo-tag or biotin label in the ECL assays; amine-coupled to the chip in SPR)
T1 construct: also called human CD3ε homodimer protein; CD3 (CD3ε)
T1 sequence (P07766 23-126 limits assumed): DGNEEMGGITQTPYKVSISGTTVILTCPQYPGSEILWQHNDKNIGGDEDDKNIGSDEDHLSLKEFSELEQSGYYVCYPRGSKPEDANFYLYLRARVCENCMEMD
Test: SPR Biacore T200; CD3ε homodimer on CM4 chip;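 further: Single-residue variant antibodies injected as analyte over CD3ε homodimer immobilized by amine coupling, run at 25 °C in HBS-EP+ buffer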

Binder	ratio of amounts bound Z=Y/X (altered form / CE115HA000)
B1	0.1
B2	0.85
B3	0.19
B4	0.52
B5	0.27
B6	0.11
B7	1.07
B8	0.86
B9	0.7
B10	0.48
B11	0.1
B12	0.1
B13	0.3
B14	0.94
B15	0.45
B16	0.33

Binder	ratio of amounts bound Z=Y/X (altered form / CE115HA000)
B17	0.18
B18	0.26
B19	0.27
B20	1.07
B21	0.65
B22	0.13
B23	0.18
B24	0.9
B25	0.16
B26	0.11
B27	0.7
B28	0.65
B29	0.22
B30	0.24
B31	0.18
B32	0.66
